Results published in the Human Domainome abundance scans (Beltran et al. 2025).
± gives the uncertainty stated by the source.

B1: Gamma-crystallin S, residues 96 to 176; numbered along this chain, P22914 (parent)
chain: IQIFEKGDFSGQMYETTEDCPSIMEQFHMREIHSCKVLEGVWIFYELPNYRGRQYLLDKKEYRKPIDWGAASPAVQSFRRI

Variants of: B1
Assay: abundance fitness (aPCA) (normalised: wild type 0, dead -1); higher = more abundant; growth selection in yeast, the domain comes from the species named
Conditions: Homo sapiens

| Variant | abundance fitness |
| --- | --- |
| IQIFEKGDFSGQMYETTEDCPSIMEQFHMREIHSCKVLEGVWIFYELPNYRGNQYLLDKKEYRKPIDWGAASPAVQSFRRI [R53N] | -0.168 ± 0.12 |
| IQIFEKGDFSGQMYETTEDCPSIMEQFHMREIHSCKVLEGVWIFYELPNYRGPQYLLDKKEYRKPIDWGAASPAVQSFRRI [R53P] | -0.169 ± 0.069 |
| IQIFEKGDFSGQMYETTEDCPSIMEQFHMREIHSCKVLEGVWIFYELPNYRGQQYLLDKKEYRKPIDWGAASPAVQSFRRI [R53Q] | 0.073 ± 0.065 |
| IQIFEKGDFSGQMYETTEDCPSIMEQFHMREIHSCKVLEGVWIFYELPNYRGSQYLLDKKEYRKPIDWGAASPAVQSFRRI [R53S] | -0.084 ± 0.057 |
| IQIFEKGDFSGQMYETTEDCPSIMEQFHMREIHSCKVLEGVWIFYELPNYRGTQYLLDKKEYRKPIDWGAASPAVQSFRRI [R53T] | -0.018 ± 0.073 |
| IQIFEKGDFSGQMYETTEDCPSIMEQFHMREIHSCKVLEGVWIFYELPNYRGVQYLLDKKEYRKPIDWGAASPAVQSFRRI [R53V] | -0.018 ± 0.038 |
| IQIFEKGDFSGQMYETTEDCPSIMEQFHMREIHSCKVLEGVWIFYELPNYRGWQYLLDKKEYRKPIDWGAASPAVQSFRRI [R53W] | -0.257 ± 0.075 |
| IQIFEKGDFSGQMYETTEDCPSIMEQFHMREIHSCKVLEGVWIFYELPNYRGYQYLLDKKEYRKPIDWGAASPAVQSFRRI [R53Y] | -0.129 ± 0.093 |
| IQIFEKGDFSGQMYETTEDCPSIMEQFHMREIHSCKVLEGVWIFYELPNYRGRCYLLDKKEYRKPIDWGAASPAVQSFRRI [Q54C] | -0.001 ± 0.1 |
| IQIFEKGDFSGQMYETTEDCPSIMEQFHMREIHSCKVLEGVWIFYELPNYRGREYLLDKKEYRKPIDWGAASPAVQSFRRI [Q54E] | -0.067 ± 0.092 |
| IQIFEKGDFSGQMYETTEDCPSIMEQFHMREIHSCKVLEGVWIFYELPNYRGRFYLLDKKEYRKPIDWGAASPAVQSFRRI [Q54F] | -0.114 ± 0.087 |
| IQIFEKGDFSGQMYETTEDCPSIMEQFHMREIHSCKVLEGVWIFYELPNYRGRGYLLDKKEYRKPIDWGAASPAVQSFRRI [Q54G] | -0.048 ± 0.053 |
| IQIFEKGDFSGQMYETTEDCPSIMEQFHMREIHSCKVLEGVWIFYELPNYRGRHYLLDKKEYRKPIDWGAASPAVQSFRRI [Q54H] | 0.035 ± 0.13 |
| IQIFEKGDFSGQMYETTEDCPSIMEQFHMREIHSCKVLEGVWIFYELPNYRGRIYLLDKKEYRKPIDWGAASPAVQSFRRI [Q54I] | -0.045 ± 0.14 |
| IQIFEKGDFSGQMYETTEDCPSIMEQFHMREIHSCKVLEGVWIFYELPNYRGRKYLLDKKEYRKPIDWGAASPAVQSFRRI [Q54K] | -0.07 ± 0.086 |
| IQIFEKGDFSGQMYETTEDCPSIMEQFHMREIHSCKVLEGVWIFYELPNYRGRLYLLDKKEYRKPIDWGAASPAVQSFRRI [Q54L] | -0.121 ± 0.049 |
| IQIFEKGDFSGQMYETTEDCPSIMEQFHMREIHSCKVLEGVWIFYELPNYRGRNYLLDKKEYRKPIDWGAASPAVQSFRRI [Q54N] | 0.089 ± 0.089 |

| Variant | abundance fitness |
| --- | --- |
| IQIFEKGDFSGQMYETTEDCPSIMEQFHMREIHSCKVLEGVWIFYELPNYRGRPYLLDKKEYRKPIDWGAASPAVQSFRRI [Q54P] | -0.168 ± 0.08 |
| IQIFEKGDFSGQMYETTEDCPSIMEQFHMREIHSCKVLEGVWIFYELPNYRGRRYLLDKKEYRKPIDWGAASPAVQSFRRI [Q54R] | -0.013 ± 0.039 |
| IQIFEKGDFSGQMYETTEDCPSIMEQFHMREIHSCKVLEGVWIFYELPNYRGRSYLLDKKEYRKPIDWGAASPAVQSFRRI [Q54S] | 0.017 ± 0.059 |
| IQIFEKGDFSGQMYETTEDCPSIMEQFHMREIHSCKVLEGVWIFYELPNYRGRTYLLDKKEYRKPIDWGAASPAVQSFRRI [Q54T] | 0.044 ± 0.068 |
| IQIFEKGDFSGQMYETTEDCPSIMEQFHMREIHSCKVLEGVWIFYELPNYRGRVYLLDKKEYRKPIDWGAASPAVQSFRRI [Q54V] | -0.045 ± 0.039 |
| IQIFEKGDFSGQMYETTEDCPSIMEQFHMREIHSCKVLEGVWIFYELPNYRGRWYLLDKKEYRKPIDWGAASPAVQSFRRI [Q54W] | -0.279 ± 0.064 |
| IQIFEKGDFSGQMYETTEDCPSIMEQFHMREIHSCKVLEGVWIFYELPNYRGRYYLLDKKEYRKPIDWGAASPAVQSFRRI [Q54Y] | -0.144 ± 0.096 |
| IQIFEKGDFSGQMYETTEDCPSIMEQFHMREIHSCKVLEGVWIFYELPNYRGRQALLDKKEYRKPIDWGAASPAVQSFRRI [Y55A] | -0.152 ± 0.25 |
| IQIFEKGDFSGQMYETTEDCPSIMEQFHMREIHSCKVLEGVWIFYELPNYRGRQDLLDKKEYRKPIDWGAASPAVQSFRRI [Y55D] | -0.531 ± 0.24 |
| IQIFEKGDFSGQMYETTEDCPSIMEQFHMREIHSCKVLEGVWIFYELPNYRGRQELLDKKEYRKPIDWGAASPAVQSFRRI [Y55E] | -0.425 ± 0.37 |
| IQIFEKGDFSGQMYETTEDCPSIMEQFHMREIHSCKVLEGVWIFYELPNYRGRQFLLDKKEYRKPIDWGAASPAVQSFRRI [Y55F] | 0.117 ± 0.16 |
| IQIFEKGDFSGQMYETTEDCPSIMEQFHMREIHSCKVLEGVWIFYELPNYRGRQGLLDKKEYRKPIDWGAASPAVQSFRRI [Y55G] | -0.529 ± 0.25 |
| IQIFEKGDFSGQMYETTEDCPSIMEQFHMREIHSCKVLEGVWIFYELPNYRGRQHLLDKKEYRKPIDWGAASPAVQSFRRI [Y55H] | 0.218 ± 0.32 |
| IQIFEKGDFSGQMYETTEDCPSIMEQFHMREIHSCKVLEGVWIFYELPNYRGRQKLLDKKEYRKPIDWGAASPAVQSFRRI [Y55K] | -0.352 ± 0.29 |
| IQIFEKGDFSGQMYETTEDCPSIMEQFHMREIHSCKVLEGVWIFYELPNYRGRQLLLDKKEYRKPIDWGAASPAVQSFRRI [Y55L] | -0.051 ± 0.21 |
| IQIFEKGDFSGQMYETTEDCPSIMEQFHMREIHSCKVLEGVWIFYELPNYRGRQMLLDKKEYRKPIDWGAASPAVQSFRRI [Y55M] | -0.231 ± 0.25 |
| IQIFEKGDFSGQMYETTEDCPSIMEQFHMREIHSCKVLEGVWIFYELPNYRGRQRLLDKKEYRKPIDWGAASPAVQSFRRI [Y55R] | 0.055 ± 0.18 |
